Measured values as given in the supplement of paper PMC9112550, “Optimization of the antimicrobial peptide Bac7 by deep mutational scanning” (BMC Biology, 2022).

Tested on: Escherichia coli TOP10
Test: shrunken log2 fold change of peptide-encoding DNA abundance (4.5 h post-induction vs induction); higher = less antimicrobial activity (less host growth inhibition)
Settings: time post-induction: 4.5 h; library: site-saturation at positions 5, 18, 19, 20
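Note: peptides expressed intracellularly from a pBAD plasmid library in pooled LB shake-flask culture, induced with 0.3% L-arabinose, DNA abundance read by NGS, three biological replicates, DESeq2 with apeglm shrinkage.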

Row | Sequence | shrunken log2 fold change
1 | RRIRFRPPRLPRPRPRPQHKPRP | -0.51
2 | RRIRKRPPRLPRPRPRPERRPRP | 0.337
3 | RRIRCRPPRLPRPRPRPKRTPRP | 0.642
4 | RRIRCRPPRLPRPRPRPGMVPRP | 0.0377
5 | RRIRFRPPRLPRPRPRPWMYPRP | -0.673
6 | RRIRVRPPRLPRPRPRPTCFPRP | -0.155
7 | RRIRVRPPRLPRPRPRPCVNPRP | 0.125
8 | RRIRERPPRLPRPRPRPVSNPRP | -1.12
9 | RRIRPRPPRLPRPRPRPVWSPRP | 0.0634
10 | RRIRWRPPRLPRPRPRPGNEPRP | 0.403
11 | RRIRPRPPRLPRPRPRPLLAPRP | 1.42
12 | RRIRNRPPRLPRPRPRPVNRPRP | 0.00717
13 | RRIRSRPPRLPRPRPRPDAEPRP | 0.984
14 | RRIRQRPPRLPRPRPRPIAPPRP | 4.03
15 | RRIRNRPPRLPRPRPRPYHCPRP | -0.0116
16 | RRIRNRPPRLPRPRPRPWEDPRP | -0.0966
17 | RRIRDRPPRLPRPRPRPWMVPRP | 0.333
18 | RRIRYRPPRLPRPRPRPHLPPRP | -0.542
19 | RRIRLRPPRLPRPRPRPDKIPRP | -0.494
20 | RRIRWRPPRLPRPRPRPPINPRP | -0.0948
21 | RRIRARPPRLPRPRPRPLKCPRP | 0.381
22 | RRIRGRPPRLPRPRPRPQQYPRP | -0.107
23 | RRIRRRPPRLPRPRPRPDQGPRP | -0.0712
24 | RRIRVRPPRLPRPRPRPDQKPRP | 0.002
25 | RRIRSRPPRLPRPRPRPSPMPRP | -0.132

Row | Sequence | shrunken log2 fold change
26 | RRIRRRPPRLPRPRPRPKKDPRP | 0.176
27 | RRIRERPPRLPRPRPRPVSGPRP | 0.386
28 | RRIRFRPPRLPRPRPRPLYMPRP | -0.921
29 | RRIRFRPPRLPRPRPRPTCKPRP | -0.295
30 | RRIRYRPPRLPRPRPRPKTMPRP | -0.614
31 | RRIRQRPPRLPRPRPRPGNMPRP | -0.0822
32 | RRIRERPPRLPRPRPRPPGWPRP | 0.467
33 | RRIRIRPPRLPRPRPRPTFWPRP | 0.407
34 | RRIRKRPPRLPRPRPRPKMWPRP | 0.363
35 | RRIRARPPRLPRPRPRPGNTPRP | -0.0858
36 | RRIRSRPPRLPRPRPRPWMYPRP | -0.0974
37 | RRIRMRPPRLPRPRPRPAMTPRP | 1.35
38 | RRIRYRPPRLPRPRPRPNMDPRP | -1.3
39 | RRIRSRPPRLPRPRPRPEWPPRP | 0.112
40 | RRIRHRPPRLPRPRPRPDESPRP | 0.0491
41 | RRIRHRPPRLPRPRPRPVMSPRP | -0.0285
42 | RRIRYRPPRLPRPRPRPAWDPRP | -0.092
43 | RRIRDRPPRLPRPRPRPSVIPRP | 0.0683
44 | RRIRGRPPRLPRPRPRPPEYPRP | 0.448
45 | RRIRERPPRLPRPRPRPCWVPRP | -0.26
46 | RRIRERPPRLPRPRPRPASIPRP | -0.327
47 | RRIRFRPPRLPRPRPRPQAQPRP | 0.023
48 | RRIRPRPPRLPRPRPRPCICPRP | -0.728
49 | RRIRKRPPRLPRPRPRPQTFPRP | 0.117
50 | RRIRKRPPRLPRPRPRPFCPPRP | 0.0562

Row | Sequence | shrunken log2 fold change
51 | RRIRLRPPRLPRPRPRPEHYPRP | -0.00385
52 | RRIRSRPPRLPRPRPRPVDIPRP | 0.147
53 | RRIRERPPRLPRPRPRPFNSPRP | -0.225
54 | RRIRNRPPRLPRPRPRPEGRPRP | 0.177
55 | RRIRTRPPRLPRPRPRPNIIPRP | -1.01
56 | RRIRWRPPRLPRPRPRPGELPRP | 0.532
57 | RRIRHRPPRLPRPRPRPRMTPRP | 0.19
58 | RRIRGRPPRLPRPRPRPTGWPRP | 1.04
59 | RRIRIRPPRLPRPRPRPTYPPRP | -0.592
60 | RRIRVRPPRLPRPRPRPNLKPRP | -0.0252
61 | RRIRQRPPRLPRPRPRPIIYPRP | -0.858
62 | RRIRKRPPRLPRPRPRPWLAPRP | 0.201
63 | RRIRCRPPRLPRPRPRPLFEPRP | 0.193
64 | RRIRERPPRLPRPRPRPNWRPRP | 0.194
65 | RRIRERPPRLPRPRPRPREQPRP | -0.0138
66 | RRIRARPPRLPRPRPRPCAYPRP | -0.399
67 | RRIRMRPPRLPRPRPRPRMGPRP | 1.11
68 | RRIRVRPPRLPRPRPRPPFFPRP | 0.193
69 | RRIRVRPPRLPRPRPRPSCAPRP | -0.16
70 | RRIRERPPRLPRPRPRPKAIPRP | -0.0487
71 | RRIRHRPPRLPRPRPRPSNDPRP | -0.849
72 | RRIRCRPPRLPRPRPRPVFEPRP | -0.00537
73 | RRIRLRPPRLPRPRPRPTWKPRP | -0.06
74 | RRIRKRPPRLPRPRPRPKFRPRP | 0.00803
75 | RRIRGRPPRLPRPRPRPYQYPRP | -0.0692

Row | Sequence | shrunken log2 fold change
76 | RRIRFRPPRLPRPRPRPLEKPRP | -0.14
77 | RRIRWRPPRLPRPRPRPWILPRP | -0.19
78 | RRIRNRPPRLPRPRPRPMGGPRP | 0.0264
79 | RRIRCRPPRLPRPRPRPHELPRP | -0.336
80 | RRIRHRPPRLPRPRPRPVWPPRP | 0.217
81 | RRIRLRPPRLPRPRPRPFKYPRP | -0.482
82 | RRIRVRPPRLPRPRPRPGMQPRP | 0.116
83 | RRIRRRPPRLPRPRPRPWAHPRP | 0.0718
84 | RRIRKRPPRLPRPRPRPWFHPRP | -0.838
85 | RRIRDRPPRLPRPRPRPCSSPRP | 0.187
86 | RRIRGRPPRLPRPRPRPYTPPRP | -0.526
87 | RRIRWRPPRLPRPRPRPPVRPRP | 0.108
88 | RRIRLRPPRLPRPRPRPIRCPRP | -0.0375
89 | RRIRNRPPRLPRPRPRPMKGPRP | -0.0787
90 | RRIRNRPPRLPRPRPRPHQNPRP | -0.239
91 | RRIRMRPPRLPRPRPRPWHMPRP | 0.00487
92 | RRIRIRPPRLPRPRPRPHWPPRP | 0.00237
93 | RRIRWRPPRLPRPRPRPAFVPRP | 0.139
94 | RRIRWRPPRLPRPRPRPSGVPRP | -0.158
95 | RRIRERPPRLPRPRPRPPANPRP | 0.0983
96 | RRIRDRPPRLPRPRPRPYGVPRP | 0.00737
97 | RRIRWRPPRLPRPRPRPKSWPRP | 0.389
98 | RRIRRRPPRLPRPRPRPFGHPRP | 0.0281
99 | RRIRNRPPRLPRPRPRPQMGPRP | 0.102
100 | RRIRDRPPRLPRPRPRPSWPPRP | 0.399

Row | Sequence | shrunken log2 fold change
101 | RRIRYRPPRLPRPRPRPSLFPRP | -0.657
102 | RRIRARPPRLPRPRPRPYVKPRP | -0.539
103 | RRIRMRPPRLPRPRPRPNMLPRP | -0.358
104 | RRIRQRPPRLPRPRPRPNKIPRP | -0.388
105 | RRIRGRPPRLPRPRPRPSFWPRP | 0.66
106 | RRIRLRPPRLPRPRPRPRGFPRP | 0.124
107 | RRIRCRPPRLPRPRPRPLRGPRP | 0.835
108 | RRIRLRPPRLPRPRPRPIWMPRP | 0.0146
109 | RRIRFRPPRLPRPRPRPTTVPRP | -0.132
110 | RRIRVRPPRLPRPRPRPIWFPRP | -0.0241
111 | RRIRYRPPRLPRPRPRPDSIPRP | -0.0267
112 | RRIRKRPPRLPRPRPRPFSHPRP | -0.131
113 | RRIRNRPPRLPRPRPRPRWYPRP | -0.194
114 | RRIRHRPPRLPRPRPRPGRIPRP | 0.136
115 | RRIRGRPPRLPRPRPRPRTHPRP | 0.666
116 | RRIRARPPRLPRPRPRPVCTPRP | 0.434
117 | RRIRFRPPRLPRPRPRPRVWPRP | 0.963
118 | RRIRWRPPRLPRPRPRPQYGPRP | -0.442
119 | RRIRARPPRLPRPRPRPCGTPRP | 0.475
120 | RRIRFRPPRLPRPRPRPGCPPRP | 0.00835
121 | RRIRFRPPRLPRPRPRPVSVPRP | -0.341
122 | RRIRGRPPRLPRPRPRPVQSPRP | 0.689
123 | RRIRNRPPRLPRPRPRPRKHPRP | -0.194
124 | RRIRERPPRLPRPRPRPMWHPRP | 0.0749
125 | RRIRDRPPRLPRPRPRPFPNPRP | -0.503
